We go through one molecule from paper PMC8602281 (Nature Communications, 2021).

The target in the assay is receptor-binding domain (RBD) of SARS-CoV-2 (SARS-CoV-2, UniProt P0DTC2). Briefly: SPR. Particulars: both partners purified.

B1: trastuzumab Fab with LCB1 insertion (Fab)
VH: EVQLVESGGGLVQPGGSLRLSCAASGFNIKDTYIHWVRQAPGKGLEWVARIYPTNGYTRYADSVKGRFTISADTSKNTAYLQMNSLRAEDTAVYYCSRWGGDGGSDKEWILQKIYEIMRLLDELGHAEASMRVSDLIYEFMKKGGSGFYAMDYWGQGTLVTVSS
VL: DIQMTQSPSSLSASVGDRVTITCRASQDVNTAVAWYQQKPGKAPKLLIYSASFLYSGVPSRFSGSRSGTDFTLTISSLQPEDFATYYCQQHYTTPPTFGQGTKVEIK
notes: also called trast-LCB1; trastuzumab +LCB1
Broadly, the Kd is a measure of binding affinity in units of concentration. Molecule B1 showed a Kd of 0.9 nM. That is a sub-nanomolar value.
